Measurements reported in publication doi:10.1101/368936.

What was measured:
[1] = biological target: Mdb1-pT113 phosphopeptide (fluorescein-labelled) (S. pombe); assay: fluorescence polarisation
[2] = biological target: RHNO1-pT202 phospho-peptide (human); assay: fluorescence polarisation

| fold reduction of binding against wild type [1] | fold tighter binding than RAD9-pS387 [2] | Substance |
| --- | --- | --- |
| 20 fold | – | Rad4-BRCT1,2 K155E (domain or fragment) |
| – | 10 fold | TOPBP1-BRCT0,1,2 segment (wild type, recombinant) (domain or fragment) |
